From patent publication US7265267 come the findings set out here.

The assay addresses CDK complexes from A. thaliana purified on p13suc1 sepharose beads. Description: cell-based or functional assay.

B1: Purified recombinant FL66 protein (E. coli, FL66pET21d), starting at methionine 11 (protein)
chain: MEVSKATAPSPGVRTRAAKTLALKRLNSSAADSALPNDSSCYLQLRSRRLEKPSSLIEPKQPPRVHRSGIKESGSRSRVDSVNSVPVAQSSNEDECFDNFVSVQVSCGENSLGFESRHSTRESTPCNFVEDMEIMVTPGSSTRSMCRATKEYTREQDNVIPTTSEMEEFFAYAEQQQQRLFMEKYNFDIVNDIPLSGRYEWVQVKP
The molecule B1 gave a CDK activity measured using histone H1 as substrate, compared to a control sample without FL66; 10 nM FL66 (% of the control) of 82; a CDK activity measured using histone H1 as substrate, compared to a control sample without FL66; 100 nM FL66 (% of the control) of 74; a CDK activity measured using histone H1 as substrate, compared to a control sample without FL66; 1 uM FL66 (% of the control) of 56; a CDK activity measured using histone H1 as substrate, compared to a control sample without FL66; 10 uM FL66 (% of the control) of 12. Further, the kinase activity of the CDK fraction bound to p13suc1 beads, FL66 added prior to washing of the beads; 0.1 uM FL66 (% of the control) was 81 and the kinase activity of the CDK fraction bound to p13suc1 beads, FL66 added prior to washing of the beads; 10 uM FL66 (% of the control) came to 35.
